Key:
Experiment in all cases: biopanning and SPR screening
[1] = biological target: T1, human TGFβ1 (human, UniProt P01137 279-390)
T1 construct: also called hTGFβ1; hTGFβ-1

[2] = biological target: T2, human TGFβ2 (human, UniProt P61812 303-414)
T2 construct: also called hTGFβ2
T2 sequence (looked up): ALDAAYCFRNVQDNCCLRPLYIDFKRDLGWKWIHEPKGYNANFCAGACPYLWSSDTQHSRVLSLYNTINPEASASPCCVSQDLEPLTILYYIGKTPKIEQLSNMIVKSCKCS

[3] = biological target: T3, human TGFβ3 (human, UniProt P10600 301-412)
T3 construct: also called hTGFβ3
T3 sequence (looked up): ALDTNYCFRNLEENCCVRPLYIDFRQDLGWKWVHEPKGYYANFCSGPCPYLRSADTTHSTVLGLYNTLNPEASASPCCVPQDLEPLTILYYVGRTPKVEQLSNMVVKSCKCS

[4] = biological target: T4, mouse TGFβ1 (mouse, UniProt P04202 279-390)
T4 construct: also called mTGFβ1; mTGFβ-1

Measured: binding result

T1 sequence (P01137 279-390 limits assumed): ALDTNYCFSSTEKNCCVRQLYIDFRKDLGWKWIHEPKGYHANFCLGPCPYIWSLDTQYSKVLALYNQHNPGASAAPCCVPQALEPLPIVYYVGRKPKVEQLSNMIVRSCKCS
T4 sequence (P04202 279-390 limits assumed): as the sequence (P01137 279-390 limits assumed) above, with A75S counted along it

B1: 4H7 (scFv)
scFv: QVQLVESGGGLVKPGRSLRLSCAASGFTFSSYAMHWVRQAPGKGLEWVAVISYDGSNKYYADSVKGRFTISRDNSKNTLYLQMNSLRAEDTAVYYCAKEMRYCSGGSCYPYAYYMDVWGQGTTVTVSSASTGGGGSGGGGSGGGGSVHSSSELTQDPAVSVALGQTVRITCQGDSLRSYYASWYQQKPGQAPVLVIYGKNNRPSGIPDRFSGSSSGNTASLTITGAQAEDEADYYCNSRDSSGNLVVFGGGTKLTVLGLGG
notes: also called anti-TGFβ-1 scFv 4H7
binds: all assays above
